# Paper PMC5898216 (Nature communications, 2015)
# T1: PriS, primase catalytic subunit, recombinant (S. solfataricus, UniProt Q97Z83 1-330)
# T1 sequence (looked up): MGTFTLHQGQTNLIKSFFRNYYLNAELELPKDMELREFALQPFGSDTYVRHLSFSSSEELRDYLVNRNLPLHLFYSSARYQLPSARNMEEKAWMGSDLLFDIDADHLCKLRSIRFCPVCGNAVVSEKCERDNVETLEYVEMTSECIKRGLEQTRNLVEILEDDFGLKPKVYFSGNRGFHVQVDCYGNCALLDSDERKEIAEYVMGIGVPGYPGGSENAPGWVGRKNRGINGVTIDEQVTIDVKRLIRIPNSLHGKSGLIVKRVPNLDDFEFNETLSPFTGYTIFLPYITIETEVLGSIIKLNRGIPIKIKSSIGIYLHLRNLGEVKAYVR
# T2: PriSL heterodimer (PriS and PriL), recombinant (S. solfataricus, UniProt Q97Z83 1-330; Q9UWW1 1-307)
# T2 sequence (looked up) 1: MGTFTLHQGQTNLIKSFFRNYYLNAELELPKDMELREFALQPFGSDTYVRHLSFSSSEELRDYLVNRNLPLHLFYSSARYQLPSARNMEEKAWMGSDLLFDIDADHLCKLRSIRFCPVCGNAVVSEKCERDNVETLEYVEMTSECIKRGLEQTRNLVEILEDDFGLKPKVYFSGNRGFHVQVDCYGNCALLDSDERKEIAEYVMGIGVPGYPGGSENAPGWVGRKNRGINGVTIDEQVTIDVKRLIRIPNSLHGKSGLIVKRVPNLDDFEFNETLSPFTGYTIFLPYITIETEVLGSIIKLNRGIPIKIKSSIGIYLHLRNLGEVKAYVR
# T2 sequence (looked up) 2: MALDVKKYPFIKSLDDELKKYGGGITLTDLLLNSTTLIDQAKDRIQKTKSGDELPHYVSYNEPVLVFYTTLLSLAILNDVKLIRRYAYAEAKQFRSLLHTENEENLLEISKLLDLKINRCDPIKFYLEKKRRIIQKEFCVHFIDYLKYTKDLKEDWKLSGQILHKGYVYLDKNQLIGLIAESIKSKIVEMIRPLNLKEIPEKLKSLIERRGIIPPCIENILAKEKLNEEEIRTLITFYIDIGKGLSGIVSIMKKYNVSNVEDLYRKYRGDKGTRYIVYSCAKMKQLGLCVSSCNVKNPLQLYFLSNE
# B1: PriL, primase large noncatalytic subunit, recombinant (natural protein, S. solfataricus, UniProt Q9UWW1 1-307, looked up)
# chain: MALDVKKYPFIKSLDDELKKYGGGITLTDLLLNSTTLIDQAKDRIQKTKSGDELPHYVSYNEPVLVFYTTLLSLAILNDVKLIRRYAYAEAKQFRSLLHTENEENLLEISKLLDLKINRCDPIKFYLEKKRRIIQKEFCVHFIDYLKYTKDLKEDWKLSGQILHKGYVYLDKNQLIGLIAESIKSKIVEMIRPLNLKEIPEKLKSLIERRGIIPPCIENILAKEKLNEEEIRTLITFYIDIGKGLSGIVSIMKKYNVSNVEDLYRKYRGDKGTRYIVYSCAKMKQLGLCVSSCNVKNPLQLYFLSNE
# Key:
# [1] = biological target: T1, PriS, primase catalytic subunit, …; assay: SEC
# [2] = biological target: B1; assay: ITC
# [3] = biological target: T2, PriSL heterodimer (PriS and PriL), …; assay: SEC
binding result [1],stoichiometry N [2],binding result [3],Binder
binds,,,B1
,1,binds,"PriX (product of Sso0502), recombinant full-length protein (natural protein, S. solfataricus, UniProt Q97ZS7 1-154, looked up) MSQEKKAKKIILHYPDDTPAGYIEYAEGSSSIYDNEGNFLFKVEGKFPPQPKKSSDYSWIEKVLEMGLQDSRKRFILYVASRYLVNVKGVNEDEALQTLKEFYYKLQSGKVYESWLKSVINGVKKKGLLPWSLKRIEERDKEMYNEIIRVLKNS"
